Target: Death Receptor 5 (human) (UniProt O14763)
Assay: cell-based or functional assay

Chain of UniProt O14763 (O14763 other isoform, or with tags, fused parts or gaps limits assumed): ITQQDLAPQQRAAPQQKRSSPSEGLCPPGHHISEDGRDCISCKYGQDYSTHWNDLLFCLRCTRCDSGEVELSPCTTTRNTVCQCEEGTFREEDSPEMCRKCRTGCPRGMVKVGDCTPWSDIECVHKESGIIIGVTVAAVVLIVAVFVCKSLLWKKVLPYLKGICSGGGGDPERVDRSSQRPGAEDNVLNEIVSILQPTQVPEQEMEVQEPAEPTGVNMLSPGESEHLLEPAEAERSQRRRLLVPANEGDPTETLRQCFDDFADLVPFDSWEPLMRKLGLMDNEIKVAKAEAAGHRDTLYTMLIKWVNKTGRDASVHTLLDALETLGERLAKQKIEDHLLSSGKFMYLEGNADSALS

Row | Substance | rate of DR5 endocytosis [fold] | receptor internalizing over 2 hr (fraction of the receptor)
1 | human recombinant soluble Apo2L/TRAIL, non-tagged (trimeric) (from UniProt P50591 114-281) (ligand) | 2 | 0.33
2 | Flag-tagged human recombinant soluble Apo2L/TRAIL cross-linked by anti-FLAG M2 antibody (from UniProt P50591 114-281) (ligand) | 2 | 0.33
